Assay results published in article PMC7612055 (Nature chemistry, 2021).

Biological target: proteasome αΔ12-subunit (Thermoplasma acidophilum, UniProt P25156 13-233)
Test: native gel or EMSA

proteasome αΔ12-subunit, sequence (P25156 13-233, stated change not applied): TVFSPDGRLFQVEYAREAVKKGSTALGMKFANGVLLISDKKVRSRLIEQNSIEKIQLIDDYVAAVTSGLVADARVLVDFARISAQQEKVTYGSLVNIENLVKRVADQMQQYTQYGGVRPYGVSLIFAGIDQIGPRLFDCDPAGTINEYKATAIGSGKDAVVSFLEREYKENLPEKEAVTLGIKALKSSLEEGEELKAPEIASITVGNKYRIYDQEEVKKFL

B1: proteasome β-subunit (natural protein)
chain: TTTVGITLKDAVIMATERRVTMENFIMHKNGKKLFQIDTYTGMTIAGLVGDAQVLVRYMKAELELYRLQRRVNMPIEAVATLLSNMLNQVKYMPYMVQLLVGGIDTAPHVFSIDAAGGSVEDIYASTGSGSPFVYGVLESQYSEKMTVDEGVDLVIRAISAAKQRDSASGGMIDVAVITRKDGYVQLPTDQIESRIRKLGLIL
- binding result: binds
